Our source for the Kd and fold reduction in binding affinity against the wild-type peptide values is article PMC5611513, “Structure-Based Prototype Peptides Targeting the Pseudomonas aeruginosa Type VI Secretion System Effector as a Novel Antibacterial Strategy” (Frontiers in Cellular and Infection Microbiology, 2017).

What all share (test): ITC
The target in assay [1] is TplEi E219A (Pseudomonas aeruginosa) (UniProt Q9I3K3).
The target in assay [2] is TplEi R266A (Pseudomonas aeruginosa) (UniProt Q9I3K3).
Assay [3] addresses TplEi S215A (Pseudomonas aeruginosa) (UniProt Q9I3K3).
Assay [4] has as its target TplEi (Pseudomonas aeruginosa) (UniProt Q9I3K3).

Turning to “A peptides (“L” peptide, TplE 82-108 plus EQVEVDD) (from UniProt Q9I3K2 82-115)”, the Kd in assay [1] stood at 35.5 µM; in assay [2] it was 46.9 µM; in assay [3] it was 7.8 µM.
As for ““L” peptide W92A (from UniProt Q9I3K2 82-115)”, in assay [4], the fold reduction in binding affinity against the wild-type peptide was determined as 500 fold.

Broadly, the Kd is the concentration at which binding is half-saturated. A high value points to lower affinity.
